Consider 2 molecules from patent US20140349310A1 (Eli Lilly, published 2014).

B2: anti-c-Met therapeutic antibody C8-H241 (human IgG4 subtype) (antibody, V domains shown)
VH: QVQLVQSGAEVKKPGASVKVSCKASGYTFTDYYMHWVRQAPGQGLEWMGRVNPNRRGTTYNQKFEGRVTMTTDTSTSTAYMELRSLRSDDTAVYYCARANWLDYWGQGTTVTVSS
VL: DIQMTQSPSSLSASVGDRVTITCSVSSSVSSIYLHWYQQKPGKAPKLLIYSTSNLASGVPSRFSGSGSGTDFTLTISSLQPEDFATYYCQVYSGYPLTFGGGTKVEIKR
notes: also called mAb C8-H241

Assay [1] addresses T1, human c-Met ECD expressed as Fc fusion protein with a flag- and His-tag (Flis-tag) at the C-terminus of the Fc (human).
T1 construct: also called human c-Met-ECD-Fc-Flis; c-Met-ECD-Fc-Flis
As to the kind of experiment: SPR (BIAcore): antibody injected over c-Met-ECD-Fc-Flis captured at 130 Ru; the sequential experiment also includes C8-H241. Background: Surface plasmon resonance follows binding to a sensor surface in real time, without labels.

Assay [2] addresses T2, cynomolgus monkey c-Met ECD expressed as Fc fusion protein with a flag- and His-tag (Flis-tag) at the … (cynomolgus monkey).
T2 construct: also called cynomolgus monkey c-Met-Flis-Fc ECD
As to the kind of experiment: SPR (Biacore): antibody captured by goat anti-mouse Fc, c-Met ECD-Fc-Flis as analyte, 25 C, 1:1 Langmuir model. How it is done:
(§1) Briefly described, the anti-c-Met monoclonal antibody of the invention may be dissolved in HBS-EP buffer (150 mM sodium chloride, 3 mM EDTA, 0.005% (w/v) surfactant P-20, and 10 mM N-2-hydroxyethylpiperazine-N′-2-ethanesulfonic acid (HEPES) at pH 7.4; #BR-1001-88). Goat anti-mouse Fc antibody is immobilized on flow cells 1 to 4 of a CM5 sensor chip at a level of 4000 response units (RUs) using amine coupling chemistry to capture anti-c-Met antibodies.
(§2) Binding may be evaluated using multiple analytical cycles. Each cycle is performed at a flow rate of 50 μl/minute, and may consist of the following steps: injection of about 10 μl of an anti-c-Met monoclonal antibody at 10 μg/ml aiming at a capture of 40-100 RUs, injection of 250 μl of human or cynomolgus monkey c-Met-Flis-Fc ECD (starting at 100 nM and using two-fold serial dilutions for each cycle) followed by 20 minutes for dissociation, and regeneration using about 30 μl of 10 mM glycine hydrochloride, pH 1.5. Association and dissociation rates for each cycle may be evaluated using a “1:1 (Langmuir) binding” model in the BIAevaluation software 4.1.

Assay [3] addresses T1, human c-Met ECD expressed as Fc fusion …. The assay is described as above. How it is done:
as §1, §2

Assay [4] addresses B2. As to the kind of experiment: ELISA control: 2 µg/mL C8-H241 (human IgG4 subtype) coated, no cMet ECD, 0.5 µg/mL biotinylated OptD11 detection.
Assay [5] deals with T1, human c-Met ECD expressed as Fc fusion …. As to the kind of experiment: SPR (BIAcore): antibody injected over c-Met-ECD-Fc-Flis captured at 130 Ru.

T2 sequence (chain, as listed by the source limits assumed): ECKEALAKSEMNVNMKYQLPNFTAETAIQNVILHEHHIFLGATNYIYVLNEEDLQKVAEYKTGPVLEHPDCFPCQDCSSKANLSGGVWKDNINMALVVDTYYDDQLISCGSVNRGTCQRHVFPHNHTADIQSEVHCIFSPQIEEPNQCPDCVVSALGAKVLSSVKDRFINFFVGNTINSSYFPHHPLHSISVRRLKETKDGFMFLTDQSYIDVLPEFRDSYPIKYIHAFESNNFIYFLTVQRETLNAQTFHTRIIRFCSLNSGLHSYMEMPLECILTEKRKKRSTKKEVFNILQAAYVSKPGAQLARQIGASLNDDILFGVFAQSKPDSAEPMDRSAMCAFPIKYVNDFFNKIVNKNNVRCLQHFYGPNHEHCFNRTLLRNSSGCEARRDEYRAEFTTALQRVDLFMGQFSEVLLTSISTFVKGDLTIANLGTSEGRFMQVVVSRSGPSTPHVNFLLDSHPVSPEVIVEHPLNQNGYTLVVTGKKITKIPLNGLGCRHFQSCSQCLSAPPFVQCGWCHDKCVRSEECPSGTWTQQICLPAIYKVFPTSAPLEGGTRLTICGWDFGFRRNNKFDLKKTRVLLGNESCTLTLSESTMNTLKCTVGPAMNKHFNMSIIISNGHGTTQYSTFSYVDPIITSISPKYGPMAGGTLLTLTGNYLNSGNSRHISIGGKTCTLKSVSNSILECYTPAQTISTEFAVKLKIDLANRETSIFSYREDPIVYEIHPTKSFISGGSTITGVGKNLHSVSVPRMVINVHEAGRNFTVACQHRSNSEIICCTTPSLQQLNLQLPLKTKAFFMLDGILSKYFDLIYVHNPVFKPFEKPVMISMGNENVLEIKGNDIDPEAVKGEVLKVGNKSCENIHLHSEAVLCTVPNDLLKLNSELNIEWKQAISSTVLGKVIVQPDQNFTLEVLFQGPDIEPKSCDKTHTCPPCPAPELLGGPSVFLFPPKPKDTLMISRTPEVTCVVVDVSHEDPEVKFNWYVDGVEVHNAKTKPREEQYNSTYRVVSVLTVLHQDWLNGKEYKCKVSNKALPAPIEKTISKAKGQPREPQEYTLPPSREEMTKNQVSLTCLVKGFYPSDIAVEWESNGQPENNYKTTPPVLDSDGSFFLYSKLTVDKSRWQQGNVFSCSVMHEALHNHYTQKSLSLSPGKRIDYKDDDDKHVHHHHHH
T1 sequence (chain, as listed by the source): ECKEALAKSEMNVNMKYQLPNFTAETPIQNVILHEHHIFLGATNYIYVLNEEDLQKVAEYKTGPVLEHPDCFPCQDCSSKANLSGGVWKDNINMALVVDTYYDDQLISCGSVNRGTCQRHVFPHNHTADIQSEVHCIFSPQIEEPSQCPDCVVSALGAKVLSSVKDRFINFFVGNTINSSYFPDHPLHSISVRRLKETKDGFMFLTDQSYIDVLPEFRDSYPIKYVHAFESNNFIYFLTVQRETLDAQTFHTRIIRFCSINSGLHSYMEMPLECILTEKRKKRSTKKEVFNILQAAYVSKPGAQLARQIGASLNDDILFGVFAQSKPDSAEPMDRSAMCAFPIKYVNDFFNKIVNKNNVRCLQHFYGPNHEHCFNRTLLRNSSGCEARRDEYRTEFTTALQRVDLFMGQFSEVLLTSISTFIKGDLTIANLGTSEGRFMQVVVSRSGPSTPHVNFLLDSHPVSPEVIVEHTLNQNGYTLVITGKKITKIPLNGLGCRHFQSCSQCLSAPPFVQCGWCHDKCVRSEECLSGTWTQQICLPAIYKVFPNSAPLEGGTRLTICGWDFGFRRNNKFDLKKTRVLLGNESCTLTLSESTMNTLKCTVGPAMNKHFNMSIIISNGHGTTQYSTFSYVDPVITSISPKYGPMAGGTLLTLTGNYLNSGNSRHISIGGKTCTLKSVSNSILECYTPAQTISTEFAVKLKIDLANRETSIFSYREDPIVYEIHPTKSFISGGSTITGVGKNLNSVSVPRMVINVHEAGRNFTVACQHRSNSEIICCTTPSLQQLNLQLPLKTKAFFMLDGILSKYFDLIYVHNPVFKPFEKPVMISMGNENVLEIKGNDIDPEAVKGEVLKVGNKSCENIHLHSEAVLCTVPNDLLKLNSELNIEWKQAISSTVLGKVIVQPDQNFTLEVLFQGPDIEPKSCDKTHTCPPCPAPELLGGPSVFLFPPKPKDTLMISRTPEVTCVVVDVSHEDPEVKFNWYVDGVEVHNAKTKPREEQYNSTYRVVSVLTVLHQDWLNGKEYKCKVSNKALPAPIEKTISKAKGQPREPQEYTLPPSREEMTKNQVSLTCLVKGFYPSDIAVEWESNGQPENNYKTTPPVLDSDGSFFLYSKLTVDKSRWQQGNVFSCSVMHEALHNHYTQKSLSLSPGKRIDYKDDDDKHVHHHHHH

B1: anti-c-Met monoclonal antibody OptD11 (mouse IgG1 subtype) (antibody, V domains shown)
VH: EVQLQQSGPELVKPGASVRISCKASGYTFTSRYIHWMKQRPGQGLEWIGWIYPVTGDTYYNEKFKGKATLTSDKSSSTAYMQISSLTSDDSAVYFCARGGGMFYYWGQGTLVTVSA
VL: ETTVTQSPALMAASPGEKVTITCSVSSSISSTNLHWYQQKSETSPKPWIYGTSNLASGVPVRFGGSGSGTSYSLTISSMEAEDAATYYCQQWSSYPYTFGGGTKLEIKR
notes: Murine IgG1; also called mAb OptD11; OptD11 c-Met antibody
With B1, the “Stoichiometry (mAb to cMet-Fc)” value in assay [1] came to 0.89. In addition, in assay [2], binding was characterised by a dissociation constant (Kd) of 0.35 nM; the off-rate (koff) – broadly, a measure of how fast the partners let go of each other – turned out to be 4.7e-05 s⁻¹; the kon (in general, the rate constant with which the complex forms) stood at 130000 M⁻¹ s⁻¹. Moreover, in assay [3], the Kd (commonly the concentration at which binding is half-saturated) turned out to be 0.12 nM, the koff stood at 9e-06 s⁻¹ and the kon was found to be 160000 M⁻¹ s⁻¹. Besides, in assay [4], the binding result is on record as “no binding (tested: 0.5 µg/mL)”.
Take B2: the “Stoichiometry (mAb to cMet-Fc)” value in assay [5] was 0.91.
